The results in this text go back to PMC6972935.

Read-outs that look alike come from different tables or passages of the source.

The target of assay [1] is α_ΔMPT-ACP construct of the yeast FAS α-subunit (KS-PPT elongated N-terminally by DM1, DM2 and KR) (S. cerevisiae). The assay can be described thus: SEC; Superose 6 Increase 30/100 GL column, TRIS-HCl buffer N100; protein preparations from purifications under native and denaturing conditions (refolded). For orientation: Size exclusion chromatography separates by hydrodynamic size, large species first.

For assay [2], the target named is KS-PPT di-domain construct of the yeast FAS α-subunit (S. cerevisiae). The assay can be described thus: SEC; Superdex 200 Increase 30/100 GL column with calibration curve; KS-PPT di-domain construct.
Assay [3] has the same target. Described as above. This is another data set of the same source.

As for “α_ΔMPT-ACP construct of the yeast FAS α-subunit (KS-PPT elongated N-terminally by DM1, DM2 and KR) (domain or fragment)”, the stoichiometry N (in general, a count of units in the complex or per binding partner) in assay [1] is 2.

As for “KS-PPT di-domain construct of the yeast FAS α-subunit (domain or fragment)”, the stoichiometry N in assay [2] was 2; in assay [3] it was 2.5.
